# Reference: the supplement of paper PMC9112550, “Optimization of the antimicrobial peptide Bac7 by deep mutational scanning” (BMC Biology, 2022)
# Test system: Escherichia coli TOP10
# Test: shrunken log2 fold change of peptide-encoding DNA abundance (4.5 h post-induction vs induction); higher = less antimicrobial activity (less host growth inhibition)
# Conditions: time post-induction: 4.5 h; library: site-saturation at positions 5, 18, 19, 20
# 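Note: peptides expressed intracellularly from a pBAD plasmid library in pooled LB shake-flask culture, induced with 0.3% L-arabinose, DNA abundance read by NGS, three biological replicates, DESeq2 with apeglm shrinkage.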
row,Sequence,shrunken log2 fold change
1,RRIRMRPPRLPRPRPRPYPFPRP,-0.0613
2,RRIRMRPPRLPRPRPRPYQMPRP,0.119
3,RRIRMRPPRLPRPRPRPYSHPRP,-0.352
4,RRIRMRPPRLPRPRPRPYSLPRP,-0.129
5,RRIRMRPPRLPRPRPRPYTKPRP,-0.0606
6,RRIRMRPPRLPRPRPRPYVHPRP,-0.0522
7,RRIRMRPPRLPRPRPRPYVLPRP,-0.189
8,RRIRMRPPRLPRPRPRPYWTPRP,-0.354
9,RRIRNRPPRLPRPRPRPAAQPRP,0.401
10,RRIRNRPPRLPRPRPRPACHPRP,0.152
11,RRIRNRPPRLPRPRPRPACQPRP,-0.0318
12,RRIRNRPPRLPRPRPRPADNPRP,0.0856
13,RRIRNRPPRLPRPRPRPAEVPRP,-0.144
14,RRIRNRPPRLPRPRPRPAFAPRP,0.158
15,RRIRNRPPRLPRPRPRPAFNPRP,0.179
16,RRIRNRPPRLPRPRPRPAGFPRP,0.0141
17,RRIRNRPPRLPRPRPRPAHQPRP,-0.108
18,RRIRNRPPRLPRPRPRPAKAPRP,0.113
19,RRIRNRPPRLPRPRPRPALDPRP,0.113
20,RRIRNRPPRLPRPRPRPANLPRP,-0.342
21,RRIRNRPPRLPRPRPRPAPFPRP,-0.299
22,RRIRNRPPRLPRPRPRPAPRPRP,1.6
23,RRIRNRPPRLPRPRPRPARAPRP,0.44
24,RRIRNRPPRLPRPRPRPASRPRP,0.12
25,RRIRNRPPRLPRPRPRPATAPRP,0.0174

row,Sequence,shrunken log2 fold change
1,RRIRNRPPRLPRPRPRPATEPRP,0.00868
2,RRIRNRPPRLPRPRPRPATKPRP,-0.0346
3,RRIRNRPPRLPRPRPRPAVFPRP,0.0636
4,RRIRNRPPRLPRPRPRPAVWPRP,0.583
5,RRIRNRPPRLPRPRPRPAWIPRP,0.275
6,RRIRNRPPRLPRPRPRPAWNPRP,-0.0495
7,RRIRNRPPRLPRPRPRPAWQPRP,-0.0152
8,RRIRNRPPRLPRPRPRPAYAPRP,-0.236
9,RRIRNRPPRLPRPRPRPAYMPRP,-0.119
10,RRIRNRPPRLPRPRPRPAYVPRP,-0.0369
11,RRIRNRPPRLPRPRPRPCACPRP,-0.0293
12,RRIRNRPPRLPRPRPRPCDKPRP,0.14
13,RRIRNRPPRLPRPRPRPCDQPRP,-0.0229
14,RRIRNRPPRLPRPRPRPCEFPRP,-0.398
15,RRIRNRPPRLPRPRPRPCENPRP,-0.0018
16,RRIRNRPPRLPRPRPRPCHAPRP,-0.37
17,RRIRNRPPRLPRPRPRPCHHPRP,-1.21
18,RRIRNRPPRLPRPRPRPCHVPRP,0.0112
19,RRIRNRPPRLPRPRPRPCILPRP,-0.119
20,RRIRNRPPRLPRPRPRPCLEPRP,0.000258
21,RRIRNRPPRLPRPRPRPCLVPRP,0.0322
22,RRIRNRPPRLPRPRPRPCMIPRP,-0.143
23,RRIRNRPPRLPRPRPRPCNDPRP,-0.274
24,RRIRNRPPRLPRPRPRPCNKPRP,-0.334
25,RRIRNRPPRLPRPRPRPCNRPRP,-0.00992

row,Sequence,shrunken log2 fold change
1,RRIRNRPPRLPRPRPRPCPIPRP,-0.223
2,RRIRNRPPRLPRPRPRPCQSPRP,-0.212
3,RRIRNRPPRLPRPRPRPCQTPRP,-0.0964
4,RRIRNRPPRLPRPRPRPCRKPRP,-0.0373
5,RRIRNRPPRLPRPRPRPCRMPRP,-0.195
6,RRIRNRPPRLPRPRPRPCRTPRP,-0.124
7,RRIRNRPPRLPRPRPRPCSFPRP,-0.217
8,RRIRNRPPRLPRPRPRPCTGPRP,-0.0472
9,RRIRNRPPRLPRPRPRPCTPPRP,-0.3
10,RRIRNRPPRLPRPRPRPCTQPRP,-0.147
11,RRIRNRPPRLPRPRPRPCVKPRP,-0.13
12,RRIRNRPPRLPRPRPRPCYWPRP,-0.345
13,RRIRNRPPRLPRPRPRPCYYPRP,-0.387
14,RRIRNRPPRLPRPRPRPDAWPRP,0.0835
15,RRIRNRPPRLPRPRPRPDCCPRP,0.00539
16,RRIRNRPPRLPRPRPRPDCTPRP,0.0531
17,RRIRNRPPRLPRPRPRPDDRPRP,0.0384
18,RRIRNRPPRLPRPRPRPDDYPRP,0.00129
19,RRIRNRPPRLPRPRPRPDEWPRP,0.0842
20,RRIRNRPPRLPRPRPRPDFIPRP,-0.111
21,RRIRNRPPRLPRPRPRPDGCPRP,0.136
22,RRIRNRPPRLPRPRPRPDGPPRP,0.01
23,RRIRNRPPRLPRPRPRPDGRPRP,-0.109
24,RRIRNRPPRLPRPRPRPDHCPRP,0.0463
25,RRIRNRPPRLPRPRPRPDHDPRP,-0.224

row,Sequence,shrunken log2 fold change
1,RRIRNRPPRLPRPRPRPDLGPRP,0.0328
2,RRIRNRPPRLPRPRPRPDMIPRP,-0.667
3,RRIRNRPPRLPRPRPRPDQQPRP,-0.0806
4,RRIRNRPPRLPRPRPRPDTGPRP,-0.0135
5,RRIRNRPPRLPRPRPRPDTRPRP,-0.111
6,RRIRNRPPRLPRPRPRPDWPPRP,0.0862
7,RRIRNRPPRLPRPRPRPDYFPRP,-0.209
8,RRIRNRPPRLPRPRPRPECAPRP,0.00267
9,RRIRNRPPRLPRPRPRPECMPRP,0.406
10,RRIRNRPPRLPRPRPRPEEAPRP,0.612
11,RRIRNRPPRLPRPRPRPEEWPRP,0.108
12,RRIRNRPPRLPRPRPRPEFTPRP,-0.161
13,RRIRNRPPRLPRPRPRPEIDPRP,0.166
14,RRIRNRPPRLPRPRPRPEKGPRP,-0.0357
15,RRIRNRPPRLPRPRPRPEKVPRP,-0.105
16,RRIRNRPPRLPRPRPRPELVPRP,0.391
17,RRIRNRPPRLPRPRPRPEPMPRP,0.132
18,RRIRNRPPRLPRPRPRPEQNPRP,-0.21
19,RRIRNRPPRLPRPRPRPEQQPRP,0.736
20,RRIRNRPPRLPRPRPRPERPPRP,0.499
21,RRIRNRPPRLPRPRPRPETLPRP,0.373
22,RRIRNRPPRLPRPRPRPETTPRP,0.0795
23,RRIRNRPPRLPRPRPRPEVWPRP,0.815
24,RRIRNRPPRLPRPRPRPEWGPRP,0.114
25,RRIRNRPPRLPRPRPRPEWKPRP,0.0303

row,Sequence,shrunken log2 fold change
1,RRIRNRPPRLPRPRPRPEWPPRP,0.178
2,RRIRNRPPRLPRPRPRPFANPRP,-0.0288
3,RRIRNRPPRLPRPRPRPFAPPRP,-0.0816
4,RRIRNRPPRLPRPRPRPFCAPRP,-0.0161
5,RRIRNRPPRLPRPRPRPFCLPRP,-0.363
6,RRIRNRPPRLPRPRPRPFEHPRP,0.0659
7,RRIRNRPPRLPRPRPRPFEKPRP,-0.0819
8,RRIRNRPPRLPRPRPRPFGQPRP,-0.282
9,RRIRNRPPRLPRPRPRPFGTPRP,-0.214
10,RRIRNRPPRLPRPRPRPFHSPRP,-0.0225
11,RRIRNRPPRLPRPRPRPFKGPRP,-0.0902
12,RRIRNRPPRLPRPRPRPFMEPRP,-0.167
13,RRIRNRPPRLPRPRPRPFNNPRP,-0.193
14,RRIRNRPPRLPRPRPRPFPVPRP,-0.125
15,RRIRNRPPRLPRPRPRPFQHPRP,-0.00968
16,RRIRNRPPRLPRPRPRPFQYPRP,-0.0242
17,RRIRNRPPRLPRPRPRPFRGPRP,0.168
18,RRIRNRPPRLPRPRPRPFRLPRP,-0.505
19,RRIRNRPPRLPRPRPRPFRPPRP,-0.215
20,RRIRNRPPRLPRPRPRPFSPPRP,-0.148
21,RRIRNRPPRLPRPRPRPFSRPRP,-0.000753
22,RRIRNRPPRLPRPRPRPFSYPRP,-0.171
23,RRIRNRPPRLPRPRPRPFTRPRP,0.00645
24,RRIRNRPPRLPRPRPRPFTSPRP,-0.0528
25,RRIRNRPPRLPRPRPRPFVPPRP,-0.263

row,Sequence,shrunken log2 fold change
1,RRIRNRPPRLPRPRPRPFVVPRP,-0.676
2,RRIRNRPPRLPRPRPRPFWHPRP,0.189
3,RRIRNRPPRLPRPRPRPFYNPRP,-0.484
4,RRIRNRPPRLPRPRPRPFYPPRP,-0.5
5,RRIRNRPPRLPRPRPRPGAFPRP,-0.0452
6,RRIRNRPPRLPRPRPRPGAYPRP,-0.00116
7,RRIRNRPPRLPRPRPRPGHAPRP,0.32
8,RRIRNRPPRLPRPRPRPGLRPRP,0.0575
9,RRIRNRPPRLPRPRPRPGLYPRP,-0.581
10,RRIRNRPPRLPRPRPRPGMLPRP,-0.184
11,RRIRNRPPRLPRPRPRPGNFPRP,-0.0496
12,RRIRNRPPRLPRPRPRPGNNPRP,-0.492
13,RRIRNRPPRLPRPRPRPGPDPRP,0.295
14,RRIRNRPPRLPRPRPRPGRTPRP,0.153
15,RRIRNRPPRLPRPRPRPGRWPRP,0.762
16,RRIRNRPPRLPRPRPRPGSHPRP,-0.291
17,RRIRNRPPRLPRPRPRPGTMPRP,0.0148
18,RRIRNRPPRLPRPRPRPGVEPRP,0.604
19,RRIRNRPPRLPRPRPRPGYHPRP,-0.37
20,RRIRNRPPRLPRPRPRPGYNPRP,-0.198
21,RRIRNRPPRLPRPRPRPGYPPRP,0.0226
22,RRIRNRPPRLPRPRPRPHANPRP,0.0684
23,RRIRNRPPRLPRPRPRPHCPPRP,-1.27
24,RRIRNRPPRLPRPRPRPHDKPRP,-0.313
25,RRIRNRPPRLPRPRPRPHDMPRP,-0.137
